According to patent US20220105122A1 (UNIVERSITY OF TOKYO, published 2022):

Biological target: T1, human HVEM (Herpes Virus entry mediator) expressed on HEK293T cells (human, UniProt Q92956 39-283)
T1 construct: whole, on cells; In the cell ELISA the HVEM-introduced HEK293T cells were fixed with 4% paraformaldehyde; in the reporter assay live HVEM-expressing HEK293T cells were used; also called TNFRSF14; HVEM/TNFRSF14
T1 sequence (looked up): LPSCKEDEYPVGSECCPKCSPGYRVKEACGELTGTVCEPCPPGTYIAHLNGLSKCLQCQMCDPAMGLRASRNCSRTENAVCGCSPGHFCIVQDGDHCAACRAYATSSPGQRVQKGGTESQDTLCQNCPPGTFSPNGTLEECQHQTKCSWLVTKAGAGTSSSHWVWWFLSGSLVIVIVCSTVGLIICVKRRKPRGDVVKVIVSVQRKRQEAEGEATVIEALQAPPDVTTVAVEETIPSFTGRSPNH
Experiment: cell ELISA on fixed HVEM-expressing HEK293T cells, His-tagged VHH detected with anti-His-tag mAb-HRP
Excerpt: The VHH antibodies prepared in the above item (1) were used to measure whether the VHH antibodies were detected in HVEM on the surface of the HVEM-expressing HEK293T cell membrane. Specifically, the HEK293T cells introduced with HVEM and the HEK293T cells not expressing HVEM as a negative control were each seeded at 1×10⁴ cells/well, fixed with 4% paraformaldehyde, and then reacted with the VHH antibodies added with 6×His tag. The horseradish peroxidase HRP-labeled anti-histidine tag antibody anti-His-tag mAb-HRP-DirecT (MBL) was reacted, and ELISA POD Substrate TMB Kit (Nacalai Tesque, Inc.) was used to measure an enzyme reaction of HRP with the substrate. The effect size data obtained for the antibody concentration was subjected to non-linear regression to a sigmoid curve based on the following formula: […]

B1: anti-human HVEM alpaca VHH antibody #1 (VHH)
VHH: QVQLVESGGGLVQPGGSLRLSCAASGFTFSTHAMSWYRQAPGKERELVAHISSTGGSTNYADSVKGRFTISRDNAKNTVYLQMNSLKPEDTAVYRCNARDWYEYWGRGTQVTVSS
notes: Tested as VHH with a 6xHis tag; also called VHH #1; not shown: 6xHis tag added for the assay
With B1 as the binder, how does the EC50 read?
Its EC50 is less than 80 nM.

B2: anti-human HVEM alpaca VHH antibody #2 (VHH)
VHH: QVQLVESGGGLVQPGGSLRLSCVASGRLFDTYTMAWYRLPPGKQRELVADISRTGFTNYADSVKGRFTISRDNAKNTVYLQMNSLKPDDTAHYRCKVREPATMYEYWGQGTQVTVSS
notes: Tested as VHH with a 6xHis tag; also called VHH #2; VHH(II); not shown: 6xHis tag added for the assay
Which EC50 does the source give for B2 here?
Its EC50 is less than 80 nM.

B3: anti-human HVEM alpaca VHH antibody #3 (VHH)
VHH: QVQLVESGGGSVQPGGSLRLSCAASGSIGSIHRWDWYRLCPGKQREWVATLNSEGGPTYADSVEGRFTISRDNAKNMVYLQMNSLKPEDTAVYRCSARTVPFEYWGRGTQVTVSS
notes: Tested as VHH with a 6xHis tag; also called VHH #3; VHH(I); not shown: 6xHis tag added for the assay
B3 was tested. Which EC50 did it give?
The EC50 was less than 80 nM.

B4: anti-human HVEM alpaca VHH antibody #4 (VHH)
VHH: QVQLVESGGGLVQPGGSLRLSCAAAESMLSPYSMGWYRLPPGKQRELVASLGSGGRTTYADSVKGRFTISRDNAKNTAYLQMNSLKPEDTAVYRCNIRELLGRRYEYWSQGTQVTVSS
notes: Tested as VHH with a 6xHis tag; also called VHH #4; not shown: 6xHis tag added for the assay
With B4 as the binder, how does the EC50 read?
Its EC50 is less than 80 nM.

B5: anti-human HVEM alpaca VHH antibody #5 (VHH)
VHH: QVQLVESGGGLVQPGGSLRLSCAASGFTFSSSHMTWVRQAPGKGLEWVSLINSSGRTAYVDSVAGRFTISRDNAKNTLYLQMTNLKPEDTAVYYCSKGGWDGLPSSSIRGQGTQVTVSS
notes: Tested as VHH with a 6xHis tag; also called VHH #5; not shown: 6xHis tag added for the assay
How did the EC50 turn out when B5 was run?
Its EC50 is less than 80 nM.
